Data taken from patent US20210269549A1, “ANTI-SAS1B ANTIBODIES, ASSOCIATED METHODS OF USE, AND COMPOSITIONS AND METHODS FOR DETECTING AND TREATING CANCER” (UNIVERSITY OF VIRGINIA PATENT FOUNDATION, priority 2015, published 2021).
Substitutions are numbered along the chain they refer to. Entries after “also recorded” stand apart in the source; their conditions may differ. One block for each molecule: values may come before it.

Assays:
human SAS1B = biological target: T1, human SAS1B (Homo sapiens, UniProt Q6HA08); assay: Immunoprecipitation of SAS1B from HEK293T cells transfected with SAS1B; assay type: binding; conditions: for Pull down (immunoprecipitation) of SAS1B: HEK293T extract, western blot detection with anti-His mAb
T1 construct: made in house; host or cells: E. coli
T1 sequence (Q6HA08 24-431): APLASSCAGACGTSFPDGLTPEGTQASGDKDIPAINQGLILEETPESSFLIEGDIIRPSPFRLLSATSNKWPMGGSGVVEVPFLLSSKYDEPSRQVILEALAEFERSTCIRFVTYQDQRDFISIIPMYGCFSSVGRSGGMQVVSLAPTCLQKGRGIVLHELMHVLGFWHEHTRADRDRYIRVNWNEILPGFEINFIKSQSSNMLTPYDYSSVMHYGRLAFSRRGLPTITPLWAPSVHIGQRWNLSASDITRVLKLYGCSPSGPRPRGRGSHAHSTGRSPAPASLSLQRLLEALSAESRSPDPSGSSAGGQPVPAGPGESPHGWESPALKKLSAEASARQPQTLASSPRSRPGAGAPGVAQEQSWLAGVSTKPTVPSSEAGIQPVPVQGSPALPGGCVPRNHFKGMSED
Experimental: HEK293T cells were transfected with human SAS1B full length cDNA for 66 h. Immuno-precipitation of SAS1B was completed with SB1, SB2, SB4 and SB5 monoclonal antibodies. Following SAS1B immunoprecipitation, detection was completed with mouse anti-His tag mAb at C-terminus. Immunoprecipitated samples were analyzed by protein staining with Coomassie staining. Immunoprecipitated sample was also analyzed by MS/MS analysis. VH and VL chain CDR1-3 regions were sequenced for the confirmed anti-SAS1B mAbs. Immunoprecipitation was performed with N-terminal mAbs from transfected cells extracted with RIPA/protease inhibitor. Detection of the SAS1B immunoprecipitation product was completed with HRP peroxidase conjugated mouse anti-His mAb at 1:3000 or 1:5000 dilution. HEK293T cells were seeded at 250,000. The cells were transfected with […] of SAS1B-SVA plasmid into each of the two T-75 flasks (at ˜90% confluency) for ˜66 h at 37 C and 5% CO2. Following transfection, two saline washes were completed with 1×HBSS. Lysed cells were incubated with RIPA+protease inhibitor for one hour on ice with mixing to ensure homogenous lysate and supernatant used for IP (RIPA: 25 mM Tris-HCl (pH 7.6), 150 mM NaCl, 1% NP-40, 1% sodium deoxycholate, 0.1% SDS). For the immunoprecipitation, 3 mg magnetic bead coupled protein G were suspended and incubated with […] of each SAS1B monoclonal antibody for 10 minutes. The magnetic bead/antibody complex was washed with PBST once, followed by incubation with […] antigen extract for 20 min. The post-immunoprecipitation sample was saved for comparison. Three 200 mL washes with washing buffer+protease inhibitor were completed. The fourth wash used only 100 mL of wash buffer+protease inhibitor. The magnetic beads were transferred to a new micro-centrifuge tube. 1× Lamelli buffer was added to bead/antibody/antigen complex for subsequent analysis. The sample was boiled at 98° C. for 10 min in 1× Lamelli buffer and the supernatant transferred to a new tube. The immunoprecipitation sample was analyzed by western blot and Coomassie blue staining. The SDS-PAGE samples (pre-IP, IP, and post IP extracts) were resolved with 12% TGX Criterion gels at 30 milliamps for 1 hr. Coomassie stain was added to determine the profile of IP samples. Following SDS-PAGE resolution, bands were transferred to nitrocellulose membrane at 1 Amp for 1 h at 5° C. The membrane was blocked with 5% dry milk/PBST, and incubated with mouse anti-His monoclonal antibody conjugated with HRP for 1 hr at RT at 1:3000 or 1:5000 dilution. The membranes were imaged with TMB solution.
A unique ˜52 kD band was recovered in SB5 IP. SB5 (IgG2b) has a different isotype than SB1 (IgG2a), and 3A7 (IgG1). The ˜52 kD band from the SB5 immunoprecipitation was isolated, restained with Coomassie blue and submitted for MS/MS to verify protein identity. The MS/MS nanospray ion source was operated at 2.5 kV. The digest was analyzed using the rapid switching capability of the instrument acquiring a full screen mass spectrum to determine peptide molecular weights followed by product ion spectra to determine amino acid sequence in sequential scans. This mode of analysis produces about 20,000 MS/MS spectra of ions ranging in abundance over several orders of magnitude. Not all MS/MS spectra are derived from peptides. The data were analyzed using the Sequest search algorithm against Uniprot Human and SwissProt.

[1] = test system: M1 (renal cancer cell line); assay: Live cell surface indirect immunofluorescence, M1; assay type: cell-based; conditions: live cells on ice; two cancer cell lines (M1, MMMT539)
Experimental: Anti-Human SAS1B mouse monoclonal antibodies reactive to SAS1B epitope on live cancer cell surfaces were identified by indirect immuno-fluorescence (IF) for the development of therapeutic antibodies. M1 (renal cancer cell line) and MMMT539 (uterine cancer cell line) cells were seeded at 20,000 cells in 1 ml per well on collagen coated coverslips in 24 well plates. The media was replaced 22 h post seeding. For antibody probing, cells were kept on ice for ˜8 to 18 min following 47 h post-seeding. The first antibody was added at 10 ug/ml, 20 ug/ml or 50 ug/ml in complete culture media with 15 mM NaN3 (pre-chilled), incubated on ice for 60 min, and the cells washed in complete culture media with 15 mM NaN3 in cold 1 ml, ×3. The second antibody, goat-antimouse-AF488 (pre-chilled), was added to the wells at 5 ug/ml in complete culture media with 15 mM NaN3 for 60 min on ice. The cells were washed in complete media with 15 mM NaN3, 1 ml, ×3 on ice. The cells were fixed in 4% PFA in PBS for 20 minutes on ice. The cells were washed in distilled water at RT, 1 ml, ×1 and mounted in 8 ul of SLOWFADE® Diamond Antifade Mountant with DAPI. An anti-EGFR monoclonal antibody was used as a positive control on live M1 cells. Epidermal growth factor receptor (EGFR) is a transmembrane glycoprotein and member of protein kinase superfamily. […] Anti-human CABYR monoclonal antibody 3A4 was used as a negative control on live MMMT539 cells. CABYR is a calcium binding cytoskeleton sperm protein with no transmembrane domain.

[2] = biological target: T2, SAS1B extracellular domain (aa 164-431) polypeptide (Homo sapiens, UniProt Q6HA08); assay: Western blot with mammalian cell-expressed recombinant SAS1B, extracellular domain; assay type: binding
T2 construct: SAS1B extracellular domain (aa 164-431) polypeptide; made in house
T2 sequence (Q6HA08 164-431): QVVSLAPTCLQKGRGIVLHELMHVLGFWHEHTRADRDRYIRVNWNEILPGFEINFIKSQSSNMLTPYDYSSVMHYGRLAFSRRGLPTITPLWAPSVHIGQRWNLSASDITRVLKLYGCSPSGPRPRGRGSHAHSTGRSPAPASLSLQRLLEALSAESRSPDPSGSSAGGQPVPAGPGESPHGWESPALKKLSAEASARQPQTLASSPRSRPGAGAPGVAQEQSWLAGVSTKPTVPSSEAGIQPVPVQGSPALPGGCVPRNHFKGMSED
Experimental: SAS1B monoclonal antibodies were analyzed with mammalian cell-expressed recombinant SAS1B by western blotting.

- Pull down (immunoprecipitation) of SAS1B (human SAS1B): pulled down
- Reaction with SAS1B extracellular domain (aa 164-431) polypeptide [2]: none of the them reacted
B1: SB1: mouse anti-SAS1B monoclonal antibody, IgG2a; VH SEQ ID NO:12, VL SEQ ID NO:13 (antibody, listed as Mus musculus, V domains shown)
VH: EVQLQQSGPELVKPGSSVKISCKASGYTFTDYNMDWVKQSHGKSLEWIGAINPNNGGTSYNQKFKGKATLTVDKSSSTAYMELRSLTSEDSAVYYCATNEYWGQGTTLTVSS
VL: NIVMTQSPKSMSMSVGERVTLSCKASENVGTYVSWYQQKPEQSPKLLIYGASNRYTGVPDRFTGSGSATDFTLTISSVQAEDLADYHCGQSYSYPWTFGGGTKLEIK
- Depletion of SAS1B in post IP sample compared to starting material (human SAS1B): relative depletion of antigen in post IP samples
- Surface labelling of live cancer cells [1]: labelled the surface

- Pull down (immunoprecipitation) of SAS1B (human SAS1B): pulled down recombinant SAS1B
- Reaction with SAS1B extracellular domain (aa 164-431) polypeptide [2]: none of the them reacted
B2: SB2: mouse anti-human SAS1B monoclonal antibody, IgG2b; VH SEQ ID NO:14, VL SEQ ID NO:15 (antibody, listed as Mus musculus, V domains shown)
VH: EVQLQQSGPELVKPGSSVKISCKASGYTFTDYNMVWVKQSHGKSLEWIGAVNPNNGGTSYNQKFKGKATLTVDKSSSTAYMELRSLTSEDSAVYYCVPNWDWFAYWGQGTLVTVSA
VL: DVLMTQTPLSLPVSLGDQASISCRSSQSLVHSNGNTYLEWYLQKPGQSPNLLIYKVSNRFSGVPDRFSGSGSGTDFTLKISRVEAEDLGVYYCFQGSHVPFTFGSGTKLEIK
- Surface labelling of live cancer cells [1]: labelled the surface

- Reaction with SAS1B extracellular domain (aa 164-431) polypeptide [2]: none of the them reacted
B3: SB5: mouse anti-human SAS1B monoclonal antibody, IgG2b; VH SEQ ID NO:16, VL SEQ ID NO:18 (antibody, listed as Mus musculus, V domains shown)
VH: B2 VH with A24P, V37M, V51I, S59T, V97A
VL: B2 VL with T7I, L29I, V30L, N50K
- Depletion of SAS1B in post IP sample compared to starting material (human SAS1B): relative depletion of antigen in post IP samples
- MS/MS analysis of the IP sample (~52 kD band) (human SAS1B): confirmed the specificity of the mAb for Human SAS1B protein
- Pull down (immunoprecipitation) of SAS1B (human SAS1B): pulled down; also recorded: immunoprecipitate “native” SAS1B
- Surface labelling of live cancer cells [1]: labelled the surface

- Pull down (immunoprecipitation) of SAS1B (human SAS1B): immunoprecipitate “native” SAS1B
- Reaction with SAS1B extracellular domain (aa 164-431) polypeptide [2]: none of the them reacted
B4: SB3: mouse anti-human SAS1B monoclonal antibody, IgG2b; VH SEQ ID NO:14, VL SEQ ID NO:15 (antibody, listed as Mus musculus, V domains shown)
VH: B2 VH
VL: B2 VL
- Surface labelling of live cancer cells [1]: labelled the surface

- Depletion of SAS1B in post IP sample compared to starting material (human SAS1B): clear relative reduction of SAS1B
- Reaction with SAS1B extracellular domain (aa 164-431) polypeptide [2]: none of the them reacted
B5: SB4: mouse anti-human SAS1B monoclonal antibody, IgG2a; VH SEQ ID NO:16, VL SEQ ID NO:17 (antibody, listed as Mus musculus, V domains shown)
VH: B2 VH with A24P, V37M, V51I, S59T, V97A
VL: B2 VL with L29I, V30L, N50K
- Pull down (immunoprecipitation) of SAS1B (human SAS1B): pulled down recombinant SAS1B; also recorded: immunoprecipitate “native” SAS1B
- Surface labelling of live cancer cells [1]: labelled the surface
